{"source": "paper PMC4012256", "proteins": {"B1": {"name": "integrin αV subunit (of αVβ3): αV(N266Q)β3(N339S) (protein)", "parent chain": "MAFPPRRRLRLGPRGLPLLLSGLLLPLCRAFNLDVDSPAEYSGPEGSYFGFAVDFFVPSASSRMFLLVGAPKANTTQPGIVEGGQVLKCDWSSTRRCQPIEFDATGNRDYAKDDPLEFKSHQWFGASVRSKQDKILACAPLYHWRTEMKQEREPVGTCFLQDGTKTVEYAPCRSQDIDADGQGFCQGGFSIDFTKADRVLLGGPGSFYWQGQLISDQVAEIVSKYDPNVYSIKYNNQLATRTAQAIFDDSYLGYSVAVGDFNGDGIDDFVSGVPRAARTLGMVYIYDGKNMSSLYNFTGEQMAAYFGFSVAATDINGDDYADVFIGAPLFMDRGSDGKLQEVGQVSVSLQRASGDFQTTKLNGFEVFARFGSAIAPLGDLDQDGFNDIAIAAPYGGEDKKGIVYIFNGRSTGLNAVPSQILEGQWAARSMPPSFGYSMKGATDIDKNGYPDLIVGAFGVDRAILYRARPVITVNAGLEVYPSILNQDNKTCSLPGTALKVSCFNVRFCLKADGKGVLPRKLNFQVELLLDKLKQKGAIRRALFLYSRSPSHSKNMTISRGGLMQCEELIAYLRDESEFRDKLTPITIFMEYRLDYRTAADTTGLQPILNQFTPANISRQAHILLDCGEDNVCKPKLEVSVDSDQKKIYIGDDNPLTLIVKAQNQGEGAYEAELIVSIPLQADFIGVVRNNEALARLSCAFKTENQTRQVVCDLGNPMKAGTQLLAGLRFSVHQQSEMDTSVKFDLQIQSSNLFDKVSPVVSHKVDLAVLAAVEIRGVSSPDHVFLPIPNWEHKENPETEEDVGPVVQHIYELRNNGPSSFSKAMLHLQWPYKYNNNTLLYILHYDIDGPMNCTSDMEINPLRIKISSLQTTEKNDTVAGQGERDHLITKRDLALSEGDIHTLGCGVAQCLKIVCQVGRLDRGKSAILYVKSLLWTETFMNKENQNHSYSLKSSASFNVIEFPYKNLPIEDITNSTLVTTNVTWGIQPAPMPVPVWVIILAVLAGLLLLAVLVFVMYRMGFFKRVRPPQEEQEREQLQPHENGEGNSET"}}, "assay": "HEK293T adhesion to FN-coated surface, crystal violet, Ca2+-Mg2+", "conditions": "glycan lost; control: αVβ3(N339S)"}
{"protein": "B1", "values": [{"measurement": "other: cell adhesion, percent_of_wt", "value": "decreases"}]}
